Source: the supplement of paper PMC9170038

Experiments:
MS2 coat protein = assay: apparent KD of MS2 coat protein; higher = weaker reporter binding; settings: Eterna round: R107
Protocol: (§1)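 RNA-MaP round R107: designed RNA switches with theophylline, tryptophan, arginine or FMN aptamers are transcribed on-chip within common flanks. They are titrated with SNAP-549-labelled MS2 coat protein in RNA-MaP buffer (100 mM Tris pH 7.5, 80 mM KCl, 4 mM MgCl2), without ligand or with the indicated ligand. Median apparent KD per design.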

[1] = tested on: K4 kissing-loop RNA reporter; assay: apparent KD of K4 kissing-loop reporter; higher = weaker reporter binding; settings: Eterna round: R107;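 further: bound reporter read as fluorescence of individual clusters on recovered sequencing chips by microscopy, with normalized cluster intensities fitted with a binding model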
Protocol: as §1, with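 “a labelled K4 kissing-loop RNA reporter” for “SNAP-549-labelled MS2 coat protein”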

[2] = input ligand: theophylline 20 uM
[3] = input ligand: theophylline 2 mM
[4] = input ligand: tryptophan 2.4 mM

Sequence | apparent KD of MS2 coat protein (MS2 coat protein; input ligand: arginine 13.2 mM) [nM] | apparent KD of MS2 coat protein (MS2 coat protein; input ligand: none) [nM] | apparent KD of MS2 coat protein (MS2 coat protein; [2]) [nM] | apparent KD of MS2 coat protein (MS2 coat protein; [3]) [nM] | apparent KD of MS2 coat protein (MS2 coat protein; [4]) [nM] | apparent KD of K4 kissing-loop reporter ([1]; input ligand: FMN 200 uM) [nM] | apparent KD of K4 kissing-loop reporter ([1]; input ligand: arginine 13.2 mM) [nM] | apparent KD of K4 kissing-loop reporter ([1]; input ligand: none) [nM] | apparent KD of K4 kissing-loop reporter [1, 2] [nM] | apparent KD of K4 kissing-loop reporter [1, 4] [nM]
GGCCUAGCGAGCGCUCGCUAGGCCGCGGAUACCAGCGAGGUCCAUCGCCCUUGGCAGCCGAACAUGAGGAUCACCCAUGUCGGUA [#1 Same State - Theophylline A Attempt #15 (HarryS)] | 9.5 | 10.3 | 13.4 | 16.9 | 9.68 | – | – | – | – | –
CCGCCCUACCGCGAUACCAGUACGGCAGUUAACAUGAGGAUCACCCAUGUGCAAACAUAAUACCCUUGGCAGCGCCUGAAUCCAU [theeternabot_sameState_MS2_Theo_B_12] | 15.7 | – | 29.2 | – | 15.6 | – | – | – | – | –
AACGCGGUGAUGGUAGCCGGACGCUAGGUACGAGGACCGGUACGGCCGCCACUCGGAGUCCUACGACAUGAGGAUCACCCAUGUA [Same State Trp A GF15] | 53.9 | – | 140 | 145 | – | – | – | – | – | –
GAGAUAGAGGCGGCCGCCACUAGUGAUGUUAGUGAUGUUAGAAAGAGAAUAGAACAGGGAUUUGAUAGGACCGGGCCAGAUGGAG [wwemullin] | – | – | – | – | – | 57.6 | 51.3 | 48.9 | 48.7 | 63
AUAGAAAAGUGGCACCCUCACUAAAACAGUCGAGGACCGGUACGGCCGCCACUCGCGCGCUUUAGUGAUGUUAAAGCUAGGCGGA | – | – | – | – | – | 269 | 228 | 265 | 259 | 245
AUGCAUCAGACUUGAUACGGUGAAAUAGCCCGAGGACCGGUACGGCCGCCACUCGGUCCAGUGAUGUUGGAUAAUUAAUCUAGGU [theeternabot_sameState_KL_Trp_A_34] | – | – | – | – | – | 197 | 256 | 297 | 294 | 82.4
CUGAGCUGCAGCGAUACCAGUGUGGAGUGAUGUUCCCUGGUCCGGGCUGUUGUUCCCUUGCGCCCUUGGCAGCGCAGGAGCAGGG [Exclusion Theophylline B GF 15] | – | – | – | – | – | 506 | 352 | 422 | 378 | 383
UAAUAAAUUCCAGCGAUAUCGCUCUUCGAAGGAGCGGGCGAAAGUCCAGGUAGGUCGCGGAGAGUGAUGUUCUUUGCGGCGCUGG [whbob_Ex_Arginine_A_2t134] | – | – | – | – | – | 408 | 315 | 400 | 407 | 244
GCAGUGAUGUUGCACGAGUAGGCUGGAGUACGAGGACCGGUACGGCCGCCACUCGUACGAAAGUCGCUAAUUUAUGGAAUGGUGA [#07 K4 Tryptophan A Same State] | – | – | – | – | – | 650 | 623 | 668 | 602 | 467
CUUCUCCUUCCAAUCUCGGCCAACACGGGACGAGGACCGGUACGGCCGCCACUCGUGCAGUGAUGUUGCACGAUGGUGACGGAGA [Queronmaan] | – | – | – | – | – | 95.7 | 87.6 | 94.2 | 86.9 | 217
ACGCGCGCGAGUGAUGUUCGGAGCGGCUGGCAGGAUAUGUAGCAAUGCAGAAGGGUCGUGGCGCUCCCUCCUGAAGGAGGGAGCG [#2 Exclusion - FMN A Attempt #25 (HarryS)] | – | – | – | – | – | 198 | 307 | 351 | 432 | 347
CCCAAAAUAUGCAGUGAUGUUGCAACCGAUACCAGUAUCGAAAGAUACCCUUGGCAGCGGAAAACCGCAACGUAAUUUAAAAGGG [Ex Theophylline A K4 16] | – | – | – | – | – | 204 | 177 | 147 | 212 | 147
CGCGCGCGCCGCAAGGCGCGCGCGAACGAUACCAGUAUAUAAGAAUACCCUUGGCAGCGUAAGAAAGCUAUAGUGAUGUUGUAGA [#19 K4 Theophylline A Same State] | – | – | – | – | – | 254 | 121 | 226 | 265 | 273
CACCAUGAAUUCUCUAGGAGUGAUGUUUUUCGAGGACCGGUACGGCCGCCACUCGGACGAGGAACGUGGGAGCGGCGAAAAGACU [xzzmullin] | – | – | – | – | – | 70.6 | 64 | 285 | 83.9 | 121
GGGAGUUAUUACGGCAGGGUCGAUACGGAUACCAGUAGGCGGCUCUACCCUUGGCAGCCGUAACAUGGUAGUGAUGUUAUCAGUC [theeternabot_exclusion_KL_Theo_A_24] | – | – | – | – | – | 527 | 420 | 518 | 468 | 405
GGAUAGGACAGAGGAUAUCUCUGAGGCAAGAAAACUUGUCUCAAAAGAGAUGACUCAGUGAUGUUGAGAGAAGGCUGUCCUAUCG [FmnBX 8 - #SwitchBubble #StaticStem] | – | – | – | – | – | 256 | 143 | 144 | 147 | 153
GCGGCGGGCCAAGGAUAUAUAUUGGAGUGAUGUUGUUCAUUUAUUUGAGCUAGUGAUGUUGGUCAAAUAGAAGGUGGCCCGCCGC [whbob_Ex_FMNB__2th217] | – | – | – | – | – | 56.5 | 34.6 | 59.3 | 44.8 | 62
GGACGACAGUCGGCCGCCACUCACAGCCGCCAGUGAUGUUGGAUUGUAGCGGAGUGAUGUUUCGCGAGGACCGGGACUGCAGUCC [Same State Tryptophan B GF 15] | – | – | – | – | – | 417 | 380 | 455 | 413 | 460
CCUAUCUCAUACGAUACCAGUCAAUGAAAUUUUAUCAAUGCCAUCACCGAGUGAUGUUCGGACCCUUGGCAGCGUAUGGGAUAGG [Ex Theophylline B K4 3] | – | – | – | – | – | 249 | 195 | 237 | 329 | 223
